Results reported in PMC2997501, “Different Residues on the Surface of the Methanothermobacter thermautotrophicus MCM Helicase Interact with Single- and Double-Stranded DNA” (Archaea, 2010).

B1: Methanothermobacter thermautotrophicus MCM protein, wild-type (enzyme, UniProt O27798 1-666, looked up)
chain: MMKTVDKSKTLTKFEEFFSLQDYKDRVFEAIEKYPNVRSIEVDYLDLEMFDPDLADLLIEKPDDVIRAAQQAIRNIDRLRKNVDLNIRFSGISNVIPLRELRSKFIGKFVAVDGIVRKTDEIRPRIVKAVFECRGCMRHHAVTQSTNMITEPSLCSECGGRSFRLLQDESEFLDTQTLKLQEPLENLSGGEQPRQITVVLEDDLVDTLTPGDIVRVTGTLRTVRDERTKRFKNFIYGNYTEFLEQEFEELQISEEDEEKIKELAGDPNIYEKIIRSTAPSIHGYREVKEAIALQLFGGTGKELDDKTRLRGDIHILIVGDPGIGKSQMLKYVSKLAPRGIYTSGKGTSGVGLTAAAVRDEFGGWSLEAGALVLGDKGNVCVDELDKMREEDRSAIHEALEQQTISIAKAGIMATLNSRCSVLAAANPKFGRFDSYKSIAEQIDLPSTILSRFDLIFVVEDKPDEEKDRELARHILKTHKEDHMPFEIDPELLRKYIAYARKNVRPVLTDEAMQVLEDFYVSMRASAADEDSPVPITARQLEALVRLSEASAKIKLKEHVEAEDARKAIKLSQACLKQVGYDPETGKIDIDKVEGRTPKSERDKFRLLLELIKEYEDDYGGRAPTNILITEMMDRYNVSEEKVEELIRILKDKGAIFEPARGYLKIV
notes: MCM helicase of Methanothermobacter thermautotrophicus, full-length enzyme, cloned in pET-21a (NdeI/XhoI); the text speaks of hexamers, dodecamers and filaments in equilibrium (cited work); also called wild-type enzyme; minichromosome maintenance helicase; source: E. coli DE3 codon plus cells, purified on a Ni-column
B2: Methanothermobacter thermautotrophicus MCM protein, Q176A mutant (enzyme, UniProt O27798 1-666, looked up)
chain: MMKTVDKSKTLTKFEEFFSLQDYKDRVFEAIEKYPNVRSIEVDYLDLEMFDPDLADLLIEKPDDVIRAAQQAIRNIDRLRKNVDLNIRFSGISNVIPLRELRSKFIGKFVAVDGIVRKTDEIRPRIVKAVFECRGCMRHHAVTQSTNMITEPSLCSECGGRSFRLLQDESEFLDTATLKLQEPLENLSGGEQPRQITVVLEDDLVDTLTPGDIVRVTGTLRTVRDERTKRFKNFIYGNYTEFLEQEFEELQISEEDEEKIKELAGDPNIYEKIIRSTAPSIHGYREVKEAIALQLFGGTGKELDDKTRLRGDIHILIVGDPGIGKSQMLKYVSKLAPRGIYTSGKGTSGVGLTAAAVRDEFGGWSLEAGALVLGDKGNVCVDELDKMREEDRSAIHEALEQQTISIAKAGIMATLNSRCSVLAAANPKFGRFDSYKSIAEQIDLPSTILSRFDLIFVVEDKPDEEKDRELARHILKTHKEDHMPFEIDPELLRKYIAYARKNVRPVLTDEAMQVLEDFYVSMRASAADEDSPVPITARQLEALVRLSEASAKIKLKEHVEAEDARKAIKLSQACLKQVGYDPETGKIDIDKVEGRTPKSERDKFRLLLELIKEYEDDYGGRAPTNILITEMMDRYNVSEEKVEELIRILKDKGAIFEPARGYLKIV
notes: MCM helicase of Methanothermobacter thermautotrophicus, derivative of the full-length enzyme; source: E. coli DE3 codon plus cells, purified on a Ni-column
B3: Methanothermobacter thermautotrophicus MCM protein, P210G mutant (enzyme, UniProt O27798 1-666, looked up)
chain: MMKTVDKSKTLTKFEEFFSLQDYKDRVFEAIEKYPNVRSIEVDYLDLEMFDPDLADLLIEKPDDVIRAAQQAIRNIDRLRKNVDLNIRFSGISNVIPLRELRSKFIGKFVAVDGIVRKTDEIRPRIVKAVFECRGCMRHHAVTQSTNMITEPSLCSECGGRSFRLLQDESEFLDTQTLKLQEPLENLSGGEQPRQITVVLEDDLVDTLTGGDIVRVTGTLRTVRDERTKRFKNFIYGNYTEFLEQEFEELQISEEDEEKIKELAGDPNIYEKIIRSTAPSIHGYREVKEAIALQLFGGTGKELDDKTRLRGDIHILIVGDPGIGKSQMLKYVSKLAPRGIYTSGKGTSGVGLTAAAVRDEFGGWSLEAGALVLGDKGNVCVDELDKMREEDRSAIHEALEQQTISIAKAGIMATLNSRCSVLAAANPKFGRFDSYKSIAEQIDLPSTILSRFDLIFVVEDKPDEEKDRELARHILKTHKEDHMPFEIDPELLRKYIAYARKNVRPVLTDEAMQVLEDFYVSMRASAADEDSPVPITARQLEALVRLSEASAKIKLKEHVEAEDARKAIKLSQACLKQVGYDPETGKIDIDKVEGRTPKSERDKFRLLLELIKEYEDDYGGRAPTNILITEMMDRYNVSEEKVEELIRILKDKGAIFEPARGYLKIV
notes: as for B2
B4: Methanothermobacter thermautotrophicus MCM protein, G211A mutant (enzyme, UniProt O27798 1-666, looked up)
chain: MMKTVDKSKTLTKFEEFFSLQDYKDRVFEAIEKYPNVRSIEVDYLDLEMFDPDLADLLIEKPDDVIRAAQQAIRNIDRLRKNVDLNIRFSGISNVIPLRELRSKFIGKFVAVDGIVRKTDEIRPRIVKAVFECRGCMRHHAVTQSTNMITEPSLCSECGGRSFRLLQDESEFLDTQTLKLQEPLENLSGGEQPRQITVVLEDDLVDTLTPADIVRVTGTLRTVRDERTKRFKNFIYGNYTEFLEQEFEELQISEEDEEKIKELAGDPNIYEKIIRSTAPSIHGYREVKEAIALQLFGGTGKELDDKTRLRGDIHILIVGDPGIGKSQMLKYVSKLAPRGIYTSGKGTSGVGLTAAAVRDEFGGWSLEAGALVLGDKGNVCVDELDKMREEDRSAIHEALEQQTISIAKAGIMATLNSRCSVLAAANPKFGRFDSYKSIAEQIDLPSTILSRFDLIFVVEDKPDEEKDRELARHILKTHKEDHMPFEIDPELLRKYIAYARKNVRPVLTDEAMQVLEDFYVSMRASAADEDSPVPITARQLEALVRLSEASAKIKLKEHVEAEDARKAIKLSQACLKQVGYDPETGKIDIDKVEGRTPKSERDKFRLLLELIKEYEDDYGGRAPTNILITEMMDRYNVSEEKVEELIRILKDKGAIFEPARGYLKIV
notes: as for B2
B5: Methanothermobacter thermautotrophicus MCM protein, PG210,211GA double mutant (enzyme, UniProt O27798 1-666, looked up)
chain: MMKTVDKSKTLTKFEEFFSLQDYKDRVFEAIEKYPNVRSIEVDYLDLEMFDPDLADLLIEKPDDVIRAAQQAIRNIDRLRKNVDLNIRFSGISNVIPLRELRSKFIGKFVAVDGIVRKTDEIRPRIVKAVFECRGCMRHHAVTQSTNMITEPSLCSECGGRSFRLLQDESEFLDTQTLKLQEPLENLSGGEQPRQITVVLEDDLVDTLTGADIVRVTGTLRTVRDERTKRFKNFIYGNYTEFLEQEFEELQISEEDEEKIKELAGDPNIYEKIIRSTAPSIHGYREVKEAIALQLFGGTGKELDDKTRLRGDIHILIVGDPGIGKSQMLKYVSKLAPRGIYTSGKGTSGVGLTAAAVRDEFGGWSLEAGALVLGDKGNVCVDELDKMREEDRSAIHEALEQQTISIAKAGIMATLNSRCSVLAAANPKFGRFDSYKSIAEQIDLPSTILSRFDLIFVVEDKPDEEKDRELARHILKTHKEDHMPFEIDPELLRKYIAYARKNVRPVLTDEAMQVLEDFYVSMRASAADEDSPVPITARQLEALVRLSEASAKIKLKEHVEAEDARKAIKLSQACLKQVGYDPETGKIDIDKVEGRTPKSERDKFRLLLELIKEYEDDYGGRAPTNILITEMMDRYNVSEEKVEELIRILKDKGAIFEPARGYLKIV
notes: as for B2
B6: Methanothermobacter thermautotrophicus MCM protein, D212N mutant (enzyme, UniProt O27798 1-666, looked up)
chain: MMKTVDKSKTLTKFEEFFSLQDYKDRVFEAIEKYPNVRSIEVDYLDLEMFDPDLADLLIEKPDDVIRAAQQAIRNIDRLRKNVDLNIRFSGISNVIPLRELRSKFIGKFVAVDGIVRKTDEIRPRIVKAVFECRGCMRHHAVTQSTNMITEPSLCSECGGRSFRLLQDESEFLDTQTLKLQEPLENLSGGEQPRQITVVLEDDLVDTLTPGNIVRVTGTLRTVRDERTKRFKNFIYGNYTEFLEQEFEELQISEEDEEKIKELAGDPNIYEKIIRSTAPSIHGYREVKEAIALQLFGGTGKELDDKTRLRGDIHILIVGDPGIGKSQMLKYVSKLAPRGIYTSGKGTSGVGLTAAAVRDEFGGWSLEAGALVLGDKGNVCVDELDKMREEDRSAIHEALEQQTISIAKAGIMATLNSRCSVLAAANPKFGRFDSYKSIAEQIDLPSTILSRFDLIFVVEDKPDEEKDRELARHILKTHKEDHMPFEIDPELLRKYIAYARKNVRPVLTDEAMQVLEDFYVSMRASAADEDSPVPITARQLEALVRLSEASAKIKLKEHVEAEDARKAIKLSQACLKQVGYDPETGKIDIDKVEGRTPKSERDKFRLLLELIKEYEDDYGGRAPTNILITEMMDRYNVSEEKVEELIRILKDKGAIFEPARGYLKIV
notes: as for B2

Biological target: the molecule itself
Test: SEC; 100 micrograms of protein on a superose-6 column (HR10/30); 20 mM Tris-HCl pH 7.5, 150 mM NaCl, 10% glycerol; 22°C, 0.2 ml/min; A280; size markers thyroglobulin, ferritin, albumin, ovalbumin

Binding result, binds:
B1
B2
B3
B4
B5
B6
